This note sets out measurements from the supplement of paper PMC10724198.

± gives the standard deviation of the averaged measurements.

In data set [1] the test system is Saccharomyces cerevisiae. Briefly: protein stability index of tFT-peptide fusion (C-terminal peptide) (PSI (0-1 scale)); higher = more stable (slower turnover). The protocol: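 MPS profiling in S. cerevisiae of the tFT-X12 degron library: putative degron peptides plus stable controls, 12 aa, fused to the C-terminus of a sfGFP-mCherry timer. Cells are FACS-sorted into 8 mCherry/sfGFP bins and deep-sequenced. PSI runs from 0 (unstable) to 1 (stable). Backgrounds are wild type, das1Δ and doa10Δ at 30 °C, and wild type, das1Δ, cdc34-1 and cdc53-1 at 37 °C; 2-3 technical replicates each.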

For data set [2], the system named is Saccharomyces cerevisiae. The data set is described as above. The note with it: genetic background: wild type; temperature: 30 C.
[3] abbreviates: genetic background: cdc34-1, temperature: 37 C.
[4] abbreviates: genetic background: cdc53-1, temperature: 37 C.
[5] abbreviates: genetic background: das1 deletion, temperature: 30 C.
Setting [6] is: genetic background: das1 deletion, temperature: 37 C.
Setting [7] is: genetic background: doa10 deletion, temperature: 30 C.
Setting [8] is: genetic background: wild type, temperature: 30 C.
Where [9] appears, read: genetic background: wild type, temperature: 37 C.
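Also: PSI is a weighted mean of sequencing reads over stability bins, variants kept only with over 10 reads, mCherry proximal and sfGFP distal, peptide attached via GGGS linker.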

For the sequence AMRTIFFPAFVS, the protein stability index in the data set with Saccharomyces cerevisiae [1] (setting [3]) is 0.543 ± 0.033; with Saccharomyces cerevisiae [1] (setting [4]) it was 0.708 ± 0.0082; with Saccharomyces cerevisiae [1] (setting [5]), 0.655 ± 0.0093; in the data set on Saccharomyces cerevisiae [1] (setting [6]) it was 0.743 ± 0.018; in the data set on Saccharomyces cerevisiae [1] (setting [7]) it was 0.158 ± 0.014; in the data set on Saccharomyces cerevisiae [1] (setting [8]) it was 0.157 ± 0.013. Moreover, the protein stability index amounted to 0.222 ± 0.0069 with Saccharomyces cerevisiae [1] (setting [9]) and 0.28 ± 0.075 in the data set with Saccharomyces cerevisiae [2].

APLSPLLPPFLC: the protein stability index with Saccharomyces cerevisiae [1] (setting [3]) was 0.693 ± 0.036; in the data set with Saccharomyces cerevisiae [1] (setting [4]) it was 0.729 ± 0.012; in the data set with Saccharomyces cerevisiae [1] (setting [5]) it was 0.661 ± 0.024; in the data set on Saccharomyces cerevisiae [1] (setting [6]) it was 0.74816 ± 0.00015; in the data set on Saccharomyces cerevisiae [1] (setting [7]) it was 0.3485 ± 0.0016; with Saccharomyces cerevisiae [1] (setting [8]), 0.369 ± 0.05. Moreover, the protein stability index with Saccharomyces cerevisiae [1] (setting [9]) came to 0.595 ± 0.013; with Saccharomyces cerevisiae [2], 0.391 ± 0.088.

Turning to APPPLFLIVLHL, the protein stability index worked out at 0.469 ± 0.0062 in the data set with Saccharomyces cerevisiae [1] (setting [3]); 0.565 ± 0.0062 with Saccharomyces cerevisiae [1] (setting [4]); 0.399 ± 0.036 in the data set on Saccharomyces cerevisiae [1] (setting [5]); 0.604 ± 0.028 in the data set with Saccharomyces cerevisiae [1] (setting [6]); 0.324 ± 0.019 with Saccharomyces cerevisiae [1] (setting [7]); 0.3 ± 0.011 in the data set with Saccharomyces cerevisiae [1] (setting [8]). Besides, the results for the protein stability index with Saccharomyces cerevisiae [1] (setting [9]) and in the data set with Saccharomyces cerevisiae [2] were 0.521 ± 0.026 and 0.424 ± 0.018, respectively.

Regarding APTMAIIVVHVR, the protein stability index worked out at 0.237 ± 0.022 with Saccharomyces cerevisiae [1] (setting [3]); 0.291 ± 0.013 in the data set on Saccharomyces cerevisiae [1] (setting [4]); 0.22 ± 0.034 in the data set with Saccharomyces cerevisiae [1] (setting [5]); 0.3582 ± 0.0027 in the data set with Saccharomyces cerevisiae [1] (setting [6]); 0.1859 ± 0.0016 in the data set with Saccharomyces cerevisiae [1] (setting [7]); 0.207 ± 0.036 with Saccharomyces cerevisiae [1] (setting [8]). Further, the protein stability index in the data set on Saccharomyces cerevisiae [1] (setting [9]) is 0.359 ± 0.019; with Saccharomyces cerevisiae [2] it was 0.3059 ± 0.0021.

On to ARKIGKVIPKLG, for which the protein stability index came to 0.686 ± 0.021 with Saccharomyces cerevisiae [1] (setting [3]); 0.732 ± 0.037 in the data set on Saccharomyces cerevisiae [1] (setting [4]); 0.634 ± 0.043 in the data set with Saccharomyces cerevisiae [1] (setting [5]); 0.737 ± 0.02 in the data set with Saccharomyces cerevisiae [1] (setting [6]); 0.292 ± 0.0097 in the data set on Saccharomyces cerevisiae [1] (setting [7]); 0.341 ± 0.039 with Saccharomyces cerevisiae [1] (setting [8]). Further, the values for the protein stability index in the data set with Saccharomyces cerevisiae [1] (setting [9]) and with Saccharomyces cerevisiae [2] were 0.599 ± 0.011 and 0.43 ± 0.027, respectively.

As to ASLSSSRPPLLP, the protein stability index with Saccharomyces cerevisiae [1] (setting [3]) was found to be 0.685 ± 0.053; in the data set on Saccharomyces cerevisiae [1] (setting [4]), 0.752 ± 0.02; in the data set on Saccharomyces cerevisiae [1] (setting [5]), 0.658 ± 0.025; with Saccharomyces cerevisiae [1] (setting [6]) it was 0.7114 ± 0.0024; in the data set with Saccharomyces cerevisiae [1] (setting [7]), 0.644 ± 0.02; with Saccharomyces cerevisiae [1] (setting [8]), 0.648 ± 0.014. Moreover, the protein stability index with Saccharomyces cerevisiae [1] (setting [9]) was 0.6962 ± 0.0011; in the data set on Saccharomyces cerevisiae [2], 0.746 ± 0.051.

On to ASLVGGVLLVVV, for which the protein stability index with Saccharomyces cerevisiae [1] (setting [3]) was found to be 0.495 ± 0.0051; in the data set on Saccharomyces cerevisiae [1] (setting [4]), 0.5 ± 0.012; with Saccharomyces cerevisiae [1] (setting [5]), 0.346 ± 0.032; in the data set with Saccharomyces cerevisiae [1] (setting [6]), 0.535 ± 0.0056; in the data set with Saccharomyces cerevisiae [1] (setting [7]), 0.313 ± 0.017; in the data set with Saccharomyces cerevisiae [1] (setting [8]) it was 0.352 ± 0.022. For the same sequence, the protein stability index was 0.502 ± 0.022 with Saccharomyces cerevisiae [1] (setting [9]) and 0.454 ± 0.011 with Saccharomyces cerevisiae [2].

In the case of AWPGRLWYFWLA, the protein stability index stood at 0.655 ± 0.028 with Saccharomyces cerevisiae [1] (setting [3]); 0.7846 ± 0.0056 in the data set on Saccharomyces cerevisiae [1] (setting [4]); 0.637 ± 0.018 in the data set with Saccharomyces cerevisiae [1] (setting [5]); 0.755 ± 0.011 in the data set on Saccharomyces cerevisiae [1] (setting [6]); 0.189 ± 0.0052 with Saccharomyces cerevisiae [1] (setting [7]); 0.215 ± 0.025 in the data set on Saccharomyces cerevisiae [1] (setting [8]). The protein stability index with Saccharomyces cerevisiae [1] (setting [9]) was found to be 0.4106 ± 0.003; with Saccharomyces cerevisiae [2] it was 0.251 ± 0.14.

Take AYCGGRNKCTTE: the protein stability index was determined as 0.689 ± 0.015 in the data set on Saccharomyces cerevisiae [1] (setting [3]); 0.711 ± 0.021 in the data set on Saccharomyces cerevisiae [1] (setting [4]); 0.644 ± 0.034 in the data set with Saccharomyces cerevisiae [1] (setting [5]); 0.744 ± 0.013 in the data set on Saccharomyces cerevisiae [1] (setting [6]); 0.659 ± 0.014 with Saccharomyces cerevisiae [1] (setting [7]); 0.643 ± 0.011 in the data set on Saccharomyces cerevisiae [1] (setting [8]). Further, the values for the protein stability index in the data set with Saccharomyces cerevisiae [1] (setting [9]) and in the data set with Saccharomyces cerevisiae [2] were 0.712 ± 0.0078 and 0.701 ± 0.0081, respectively.
